Patent publication US20130040886A1 (BOARD OF TRUSTEES OF THE UNIVERSITY OF ILLINOIS, published 2013)

B1: G13 Switch Region 2 peptide (G13SR2pep), Val-Gly-Gly-Gln-Arg-Ser-Glu-Arg-Lys-Arg-Trp-Phe-Glu-Cys-Phe-Asp-Ser (peptide)
peptide: VGGQRSERKRWFECFDS
notes: how it was coupled is not described; also called G13SR2pep peptide; Gα13 SR2 peptide
B2: G13SR2-Random Peptide, Gly-Phe-Asp-Glu-Trp-Glu-Val-Ser-Phe-Lys-Gly-Cys-Gln-Arg-Arg-Ser-Arg (peptide)
peptide: GFDEWEVSFKGCQRRSR
notes: Control peptide immobilised on a peptide column; also called Random Peptide control

Tests used:
[1] = molecular target: T1, α11bβ3 integrin (platelet integrin αIIbβ3) from solubilized human platelets (human, UniProt P08514 32-1039; P05106 27-788); test: peptide affinity column with solubilized human platelets, immunoblot of eluate
T1 construct: mature; Native protein from solubilized human platelets, detected by immunoblot with Abcam antibodies
Source text: (§1) On this basis, subsequent experiments examined whether G₁₃SR2ₚₑₚ peptide (SEQ ID NO:5) does indeed directly interact with α11bβ₃ and/or one of its associated proteins in human platelets. In this respect, platelet α11bβ₃ integrin is known to exist in a complex with two cytoplasmic proteins, i.e., talin and kindlin-3 (Tadokoro, et al. (2003) Science 302:103-6; Moser, et al. (2008) Nature Med. 14:325-30). To determine whether G₁₃SR2ₚₑₚ, (SEQ ID NO:5) interacts with any of these proteins (or with the entire α11bβ₃, talin, kindlin-3 complex), peptide affinity columns using G₁₃SR2ₚₑₚ (SEQ ID NO:5) were employed. The affinity purified protein(s) from solubilized human platelets that specifically bound to the G₁₃SR2ₚₑₚ peptide were eluted, and analyzed by western blot for α11bβ₃ integrin, talin and kindlin-3. In similar experiments, the eluates from a peptide column using the G₁₃SR2-Random Peptide (SEQ ID NO:9) were also analyzed. […] This was supported by similar experiments using talin antibodies and the kindlin 3 antibody (Abcam).

[2] = molecular target: T2, kindlin 3 (72 kD) from solubilized human platelets (human, UniProt Q86UX7 1-667); test: as above
T2 construct: mature; Native cytoplasmic protein from solubilized human platelets
T2 sequence (Q86UX7 whole entry): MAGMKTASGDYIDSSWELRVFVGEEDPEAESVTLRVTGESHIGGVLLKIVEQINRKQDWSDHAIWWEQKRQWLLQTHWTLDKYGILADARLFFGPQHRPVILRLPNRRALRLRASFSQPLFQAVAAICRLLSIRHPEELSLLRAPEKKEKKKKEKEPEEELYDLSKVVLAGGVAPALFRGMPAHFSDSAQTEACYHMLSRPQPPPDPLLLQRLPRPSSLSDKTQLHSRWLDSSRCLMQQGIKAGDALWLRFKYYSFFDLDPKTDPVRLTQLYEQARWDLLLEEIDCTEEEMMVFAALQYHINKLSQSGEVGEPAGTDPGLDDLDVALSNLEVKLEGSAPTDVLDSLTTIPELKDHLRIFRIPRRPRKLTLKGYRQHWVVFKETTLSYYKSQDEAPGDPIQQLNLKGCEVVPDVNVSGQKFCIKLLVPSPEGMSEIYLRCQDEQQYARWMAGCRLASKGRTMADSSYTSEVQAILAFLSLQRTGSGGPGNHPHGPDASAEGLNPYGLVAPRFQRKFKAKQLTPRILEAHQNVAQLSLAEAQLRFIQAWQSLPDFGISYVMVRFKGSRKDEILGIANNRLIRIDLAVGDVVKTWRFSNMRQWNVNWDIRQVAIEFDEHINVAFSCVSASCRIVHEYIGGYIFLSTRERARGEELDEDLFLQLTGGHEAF
Source text: as §1

[3] = molecular target: T3, α11bβ3-talin-kindlin 3 complex from solubilized human platelets (human, UniProt P08514 32-1039; P05106 27-788; Q9Y490 1-2541; Q86UX7 1-667); test: as above
T3 construct: mature
Source text: as §1

[4] = molecular target: T1, α11bβ3 integrin (platelet integrin …); test: peptide affinity column with solubilized human platelets, western blot of eluates
Source text: as §1

[5] = molecular target: T2, kindlin 3 (72 kD) from solubilized …; test: as above
Source text: as §1

| Binder | binding result [1] | binding result [2] | binding result [3] | binding result [4] | binding result [5] |
| --- | --- | --- | --- | --- | --- |
| B1 | binds | binds | binds |  |  |
| B2 |  |  |  | no binding | no binding |
